Data reported in patent US20220195070A1.

Columns and labels:
Anti-hC5 Antibody [1] = assay: sandwich ELISA: SKA antibody coated, Anti-hC5 Antibody in pooled human serum; OD spiked / OD blank
Anti-hC5 Antibody [2] = assay: SPR (Biacore T200), 25 C, pH 7.4; SKA antibody captured by anti-rabbit IgG, Anti-hC5 Antibody injected 0-800 nM
Anti-hC5 Antibody [3] = assay: sandwich ELISA: SKA antibody coated, Anti-hC5 Antibody in pooled human serum, then human C5, mouse anti-hC5, anti-mouse-POD; incubation 14 min; blank OD 0.028
Anti-hC5 Antibody [4] = assay: sandwich ELISA: SKA antibody coated, Anti-hC5 Antibody in pooled human serum, then human C5, mouse anti-hC5, anti-mouse-POD; incubation 18 min; blank OD 0.032
Anti-hC5 Antibody [5] = assay: SPR (Biacore T200), 25 C, pH 7.4; SKA antibody captured by anti-rabbit IgG, Anti-hC5 Antibody injected 0-800 nM; *reliability might be low
Anti-hC5 Antibody [6] = assay: sandwich ELISA: SKA antibody coated, Anti-hC5 Antibody in pooled human serum, then human C5, mouse anti-hC5, anti-mouse-POD; incubation 9 min; blank OD 0.028
Anti-hC5 Antibody [7] = assay: sandwich ELISA: SKA antibody coated, Anti-hC5 Antibody in pooled human serum, then human C5, mouse anti-hC5, anti-mouse-POD; incubation 16 min; blank OD 0.030
Anti-hC5 Antibody [8] = assay: sandwich ELISA: SKA antibody coated, Anti-hC5 Antibody in pooled human serum, then human C5, mouse anti-hC5, anti-mouse-POD; incubation 9 min; blank OD 0.027
Anti-hC5 Antibody [9] = assay: sandwich ELISA: SKA antibody coated, Anti-hC5 Antibody in pooled human serum, then human C5, mouse anti-hC5, anti-mouse-POD; incubation 21 min; blank OD 0.032
Anti-hC5 Antibody [10] = assay: sandwich ELISA: SKA antibody coated, Anti-hC5 Antibody in pooled human serum, then human C5, mouse anti-hC5, anti-mouse-POD; incubation 11 min; blank OD 0.027
Anti-hC5 Antibody [11] = assay: sandwich ELISA: SKA antibody coated, Anti-hC5 Antibody in pooled human serum, then human C5, mouse anti-hC5, anti-mouse-POD; incubation 19 min; blank OD 0.030
Anti-hC5 Antibody [12] = assay: sandwich ELISA: SKA antibody coated, Anti-hC5 Antibody in pooled human serum, then human C5, mouse anti-hC5, anti-mouse-POD; incubation 8 min; blank OD 0.026
Anti-hC5 Antibody [13] = assay: sandwich ELISA: SKA antibody coated, Anti-hC5 Antibody in pooled human serum, then human C5, mouse anti-hC5, anti-mouse-POD; incubation 8 min; blank OD 0.027

Anti-hC5 Antibody, sequence (constant, as listed by the source limits assumed): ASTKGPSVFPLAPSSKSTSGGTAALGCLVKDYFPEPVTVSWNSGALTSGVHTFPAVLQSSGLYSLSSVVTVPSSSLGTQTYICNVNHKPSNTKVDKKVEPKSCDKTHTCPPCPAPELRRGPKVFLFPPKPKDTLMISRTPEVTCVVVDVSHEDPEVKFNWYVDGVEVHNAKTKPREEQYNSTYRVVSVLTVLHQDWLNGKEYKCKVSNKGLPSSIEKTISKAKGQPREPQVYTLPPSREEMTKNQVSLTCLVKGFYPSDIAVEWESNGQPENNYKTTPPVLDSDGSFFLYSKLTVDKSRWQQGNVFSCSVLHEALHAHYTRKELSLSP

Row | Binder | Signal to noise ratio (Anti-hC5 Antibody [1]) | koff (Anti-hC5 Antibody [2]) [s⁻¹] | kon (Anti-hC5 Antibody [2]) [M⁻¹ s⁻¹] | other results
1 | SKA0127 (antibody, V domains shown) VH: QSVEESGGRLVTPGTPLTLTCTVSGIDLSTYAMTWVRQAPGKGLEYIGYINGGGSAYYASWVNGRFTISKTSTTADLKITSPTTEDTATYFCARGPVGSYHRIWGPGTLVTVSS VL: ALVMTQTPSSVSEPVGGTVTINCRASEDIESYLAWYQQKPGQPPKLLIYATSNLETGVPSRFKGSGSGTDYTLTISGVQCADAATYYCQGYYELSSIDNNAFGGGTEVVVKG | 2.8 | 0.000254 | 71800 | Kd (Anti-hC5 Antibody [2]): 3.54 nM; OD (Anti-hC5 Antibody spiked) (Anti-hC5 Antibody [3]): 0.078 OD
2 | SKA0001 (antibody, V domains shown) VH: QSVEESGGRLVTPGTPLTLTCTVSGFSLSYYAMNWVRQAPGKGLEWIGIIGISGGTYYASWAKGRFTISKSSSTTVDLKMTSPTTEDTATYFCARGGSAWGDLWGQGTLVTVSS VL: DIVMTQTPSSVSAAVGGTVTINCQASQSISRLLAWYQQKPGQPPKVLMHDASDLASGVPSRFKGSGSGTEYTLTISDLECADAATYYCQSYYWGSSGDIGYPFGGGTEVVVKG | 2.5 |  |  | OD (Anti-hC5 Antibody spiked) (Anti-hC5 Antibody [4]): 0.079 OD
3 | SKA0009 (antibody, V domains shown) VH: QSVEESGGRLVTPGTSLTLTCTVSGIDLSSYGMGWVRQAPGMGLEYIGIIYAAGRTYYASWVKGRFIISKTSTTVDLEMTSLTTEDTATYFCARHGSWYAGMDLWGPGTLVTVSS VL: AIEMTQTPSPVSAAVGGTVSINCQASEDIENYFAWYQQKPGQPPKLLIYDASELASGVPSRFSGSGSGTDFTLTISGVQCDDAATYYCQHADYAASSENTFGGGTEVVVKG | 3.2 |  | 76900 | Kd (Anti-hC5 Antibody [5]): 0.0184 nM; koff (Anti-hC5 Antibody [5]): 1.41e-06 s⁻¹; OD (Anti-hC5 Antibody spiked) (Anti-hC5 Antibody [6]): 0.089 OD
4 | SKA0016 (antibody, V domains shown) VH: QEQLVESGGGLVQPEGSLTLTCTASGFSFSSSDYMCWVRQAPGKGLEWIACIYIGSNGDTFYASWAKGRFTISKTSSTTVTLQMTSLTAADTATYFCARDSRRADDYGTRLDLWGQGTLVTVSS VL: DIVMTQTPSSVSAAVGGTVTIKCQASQNIYRNLAWYQQKPGQPPKLLIYQASKLESGVPSRFKGSGSGTEFTLTISDLDCDDAASYYCQSISYISSGDTFFWAFGGGTEVVVKG | 2.5 |  | 30900 | Kd (Anti-hC5 Antibody [5]): 0.0191 nM; koff (Anti-hC5 Antibody [5]): 5.9e-07 s⁻¹; OD (Anti-hC5 Antibody spiked) (Anti-hC5 Antibody [7]): 0.076 OD
5 | SKA0027 (antibody, V domains shown) VH: QEQLVESGGGLVQPEGSLTLTCTASGFSFSSSDYMCWVRQAPGKGLEWIGCIYTGSGSTYYASWAKGRFTISKTSSTTVTLQMTSLTAADTATFFCARRGDSYSNYSFKLWGPGTLVTVSS VL: AFELTQTPASVEAAVGGTVTIKCQASQNIYSNLAWYQQKPGQPPKLLIYTASSLASGVSSRFKGSGSGTEFTLTISDLECDDAATYYCQCTYINNGYGNTFGGGTEVVVKG | 3.4 |  |  | OD (Anti-hC5 Antibody spiked) (Anti-hC5 Antibody [8]): 0.093 OD
6 | SKA0028 (antibody, V domains shown) VH: QSVEESGGRLVTPGTPLTLTCTASGFTISSYHMSWVRQAPGKGLEWIGIIHGSGNMWYASWAKGRFTISRTSTTVDLEITSPTTEDTATYFCARIRFWASSNYYYFYLWGQGTLVTVSS VL: ALVMTQTPASVSEPVGGTVTINCQASQNIYSNLAWYQQKPGQRPRLLIYGASNLESGVPSRFRGSGSGTEFTLTISDLECADAATYYCQSAYWGNNNDGAFGGGTEVVVKG | 3 |  |  | OD (Anti-hC5 Antibody spiked) (Anti-hC5 Antibody [7]): 0.091 OD
7 | SKA0046 (antibody, V domains shown) VH: QEQLVESGGGLVQPEGSLTLTCTASGFSLSSSNYMWWVRQAPGKGLEWIACIHASSSGDTYYANWAKGRFTISKTSSTTVTLQMTSLTAADTATYFCARGGYIYGDGGYNGVAGFSLWGPGTLVTVSS VL: DVVMTQTPASVSEPVGGTVTIKCQASETIGNALAWYQQKPGQRPKLLIYGASNLESGVPSRFKGSGSGTEFTLTISDVQCDDAATYYCQSIYYSSSADTFFFPFGGGTEVVVKG | 2.3 | 5.17e-05 | 88500 | Kd (Anti-hC5 Antibody [5]): 0.585 nM; OD (Anti-hC5 Antibody spiked) (Anti-hC5 Antibody [9]): 0.075 OD
8 | SKA0052 (antibody, V domains shown) VH: QSLEESGGDLVKSGASLTLTCTASGFSFSSSYYMCWVRQAPGKGLEWIACIYTGSNGDTYYASWANGRFTISKASSTTVTLQMTSLTAADTATYFCARYTYDDDGDYTSFNLWGPGTLVTVSS VL: ALVMTQTPSSVSADVGGTVTINCQASQNIYRNLAWYQQKPGQRPKLLIYGASNLEPGVPSRFKGSGSGTEFTLTISDLECDDAATYYCQSVGYSGSVDTFFYAFGGGTEVVVKG | 3.7 | 0.000196 | 108000 | Kd (Anti-hC5 Antibody [2]): 1.81 nM; OD (Anti-hC5 Antibody spiked) (Anti-hC5 Antibody [10]): 0.098 OD
9 | SKA0054 (antibody, V domains shown) VH: QSLEESGGGLVQPEGSLTLTCTASGFSFSSSFWICWVRQAPGKGLEWLACIDAGSSDNTYYANWAKGRFTISKTSSTTVTLQMTSLTDADTATYFCARDRDAAGDAGYGYATSFNLWGPGTLVTVSS VL: AIDMTQTPSSVSAAVGGTVTINCQASESIYSNLAWYQQKPGQRPKLLIYLASTLASGVPSRFKGSGSGTEFTLTISDLECADAATYYCQSVYYDSRGDTFFWAFGGGTEVVVKG | 2.6 | 0.000197 | 27300 | Kd (Anti-hC5 Antibody [2]): 7.22 nM; OD (Anti-hC5 Antibody spiked) (Anti-hC5 Antibody [11]): 0.077 OD
10 | SKA0117 (antibody, V domains shown) VH: QSLEESGGDLVKPEGSLTLTCTASGFSFSSSHYMCWVRQAPGKGLEWIACIYAGSSDNTYYASWAKGRFTISKTSSTTVTLQMTSLTAADTATYFCARDTYGYVGYASAGGFFNLWGPGTLVTVSS VL: ALVMTQTPASVSAAVGGTVTINCQASHNIYSVLAWYQQKPGQRPRLLIYGASNLESGVPSRFKGSGSGTEYTLTISDLECDDAATYYCQSAYYSSSTGDNAFGGGTEVVVKG | 4.1 |  |  | OD (Anti-hC5 Antibody spiked) (Anti-hC5 Antibody [8]): 0.112 OD
11 | SKA0141 (antibody, V domains shown) VH: QSLEESGGDLVKPGASLTLTCTASGFSFSSSYYMCWVRQAPGKGLEWIACIYAGSSGSTYYASWAKGRFTISKTSSTTVTLQMTSLTAADTATYFCARDGDENMLVGGYFNLWGPGTLVTVSS VL: ALVMTQTPSSVSAAVGGTVTINCQASHNIYSNLAWYQQKPGQRPKLLIYGASNLESGVPSRFKGSGSGTEYTLTISDLECDDAATYYCQSAYYSSNAGYNAFGGGTEVVVKG | 4.2 |  |  | OD (Anti-hC5 Antibody spiked) (Anti-hC5 Antibody [12]): 0.109 OD
12 | SKA0171 (antibody, V domains shown) VH: QSLEESGGGLVQPEGSLTLSCTASGFSFSSSYYMCWVRQAPGKGLEWIACIYGGNSVITYYANWAKGRFTISETSSTTVTLQMTSLTAADTATYFCAREVHYDYLYTTYGYANLWGPGTLVTVSS VL: AIKMTQTPASVSAVVGGTVTINCQASETIYSGLAWYQQKPGQPPKLLIYDTANLETGVSSRFKGSGSGTEYTLTISDLECDDAATYFCLYAYYSGGSADNAFGGGTEVVVKG | 4 |  |  | OD (Anti-hC5 Antibody spiked) (Anti-hC5 Antibody [13]): 0.106 OD
